Earlier results as cited in paper PMC8894873.

Target: Glu35 (UniProt position 53, CAAKFESNFNT)
Test: not stated (a cited reference title indicates two-dimensional 1H NMR)

Lysozyme (lysozyme C, presumably hen egg-white) (Gallus gallus (inferred; the article says only 'lysozyme'))
pKa: 6.3
